Measurements as given in patent US20140370037A1 (published 2014).

Experiments:
[1] = target: T1, human DLL3 antigen (human, UniProt Q9NYJ7 27-492, limits assumed); assay: ELISA or flow cytometry screen
T1 construct: also called immobilized human DLL3; recombinant human DLL3
T1 sequence (looked up): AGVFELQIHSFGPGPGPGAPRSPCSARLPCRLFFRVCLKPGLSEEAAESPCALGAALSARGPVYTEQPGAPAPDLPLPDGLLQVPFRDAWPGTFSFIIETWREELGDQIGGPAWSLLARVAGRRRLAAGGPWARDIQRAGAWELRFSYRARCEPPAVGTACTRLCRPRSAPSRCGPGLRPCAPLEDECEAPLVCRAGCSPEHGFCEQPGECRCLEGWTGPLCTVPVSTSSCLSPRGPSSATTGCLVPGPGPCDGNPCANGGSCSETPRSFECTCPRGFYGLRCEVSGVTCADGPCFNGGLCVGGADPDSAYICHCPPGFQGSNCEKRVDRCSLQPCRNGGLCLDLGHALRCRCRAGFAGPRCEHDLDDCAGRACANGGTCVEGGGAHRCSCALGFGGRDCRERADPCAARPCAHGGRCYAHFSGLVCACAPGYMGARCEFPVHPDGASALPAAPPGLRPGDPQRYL

[2] = target: T1, human DLL3 antigen; assay: SPR, Biacore 2000, human DLL3 antigen

B1: SC16.142 (antibody, V domains shown)
VH: EVQLQQSGPELVKPGASVKISCKASGYTFTDYNMHWVKQSHGKSLEWIGFFYPYNGNTVYSQKFKSKATLTVDNSSSTAYMELRSLTSEDSAVYYCARLNWEGYWGQGTTLTVSS
VL: DIKMTQSPSSMYASLGERVTITCKASQDINNYLSWFQQKPGKSPKTLIYRANRLVDGVPSRFSGSGSGQDYSLTISSLEYEDMGIYYCLQYDEFPYTFGGGTKLEIKR
notes: murine mAb
Question: Does B1 bind [1]?
Answer: binds

B2: SC16.147 (antibody, V domains shown)
VH: QIQLVQSGPELTKPGETVKISCKASGYTFTDYSLHWVKQALGKGLKWMGWINTETGEPAYADDFKGRFAFSLETSASTAYLQINDLKNEDTTTYFCGIYDGYAMDYWGQGTSVTVSS
VL: DIQMTQTASSLSASLGDRVTISCRASQDINNYLNWYQQKPDGTVKLLIYYTSRLHSGVPSRFSGSGSGTDYSLTISILEQEDIATYFCQQGDTLPWTFGGGTKLEIK
notes: murine mAb
Question: Does B2 bind [1]?
Answer: binds

B3: SC16.140 (antibody, V domains shown)
VH: QVQLQQSGPELVRPGASVKMSCKASGYTFTSYWMHWVKQRPGQGLEWIGMIDPSNSETRLNQKFKDKATLNVDKSSNTAYMQLSSLTSEDSAVYYCAVMDYYFDYWGQGTTLTVSS
VL: DIVLTQSLASLAVSLGQRATISCRASKSVSTSGYSYMHWYQQKPGQPPKLLIYLASNLESGVPARFSGSGSGTDFTLNIHPVEDEDAATYYCQHSRELPFTFGGGTKLEIKR
notes: murine mAb
Question: Does B3 bind [1]?
Answer: binds

B4: SC16.135 (antibody, V domains shown)
VH: QVQLQQSGAELVRPGTSVKVSCKASGYAFTNYLIEWVKQRPGQGLEWIGVINPGSGGTNSNEKFKAKATLTADKSSSTAYMQLSSLTSADSAVYFCARSDYDYAFYAMDYWGQGTSVTVSS
VL: DIKMTQSPSSMYASLGERVTITCKASQDINRYLSWFQQKPGKSPKTLIYRANRLVDGVPSRFSGSGSGQDYSLTISSLEYEDMGIYYCLQYDEFPFTFGSGTKLEIK
notes: murine mAb
Question: Does B4 bind [1]?
Answer: binds

B5: SC16.141 (antibody, V domains shown)
VH: QVQLKQSGPGLVAPSQSLFITCTVSGFSLTSYEINWVRQPPGKGLEWLGVIWTGGSTNYNSALISRLSISKDNSKSLVFLKMNSLQTDDTAIYYCVRGVYAMDYWGQGTSVTVSS
VL: DIKMTQSPSSMYASLGERVTITCKASQDINSYLSWFQQKPGKSPKTLIYRANRLVDGVPSRFSGSGSGQDYSLTISSLEYEDMGIYYCLQYDEFPFTFGSGTKLEIK
notes: murine mAb
Question: Does B5 bind [1]?
Answer: binds

B6: hSC16.15 (antibody, V domains shown)
VH: QVQLVQSGAEVKKPGASVKVSCKASGYTFTRYWIHWIRQAPGQGLEWMGYINPTTVYTEFNQNFKDRVTMTRDTSTSTVYMELSSLRSEDTAVYYCARGGSNFFDYWGQGTTVTVSS
VL: AIQLTQSPSSLSASVGDRVTITCRASENIYYNLAWYQQKPGKAPKLLIYTANSLEDGVPSRFSGSGSGTDFTLTISSLQPEDFATYFCKQAYDVPPTFGGGTKLEIK
notes: humanized (CDR grafted); also called humanized SC16.15
Question: Does B6 bind [2]?
Answer: binds

B7: SC16.137 (antibody, V domains shown)
VH: EVQLVESGGDLVKPGGSLKLSCAASGFTFSSYGMSWVRQTPDKRLEWVATISSGGSYTYYPDSVKGRFTISRDNAKNTLYLQMSSLKSEDTAMYYCARRRADAMDYWGQGTSVTVSS
VL: QIVLTQSPAIMSASLGEEITLTCSASSSVSYMHWYQQKSGTSPKLLIYSTSNLASGVPSRFSGSGSGTFYSLTISSVEAEDAADYYCHQWSSYHTFGGGTKLEIKR
notes: murine mAb
Question: Does B7 bind [1]?
Answer: binds

B8: SC16.130 (antibody, V domains shown)
VH: EVQLQQSGPELVKPGASVKMSCKASGYTFTSYVMHWVKQKPGQGLEWIGYINPYNDGTEYNEKFKGKATLTSDKSSSTAYMELSSLTSEDSAVYYCARGVYDGYSYFDYWGQGTTLTVSS
VL: DIQLTQSPASLSASVGETVTITCRASGSIHNYLAWYQQKQGKSPQLLVYNAKTLVDGVPSRFSGSGSGTQYSLKINSLQPEDFGYYYCQHFWTTPWTFGGGTKLEIK
notes: murine mAb
Question: Does B8 bind [1]?
Answer: binds

B9: SC16.136 (antibody, V domains shown)
VH: EFQLQQSGPELVKPGASVKMSCKASGYTFTSYVMHWVKQKPGQGLEWIGYINPYNDGTKYNEKFKGKATLTSDKSSSTAYMELSSLTSEDSAVYYCARDRSGYEDYYGMDYWGQGTSVTVSS
VL: DIQMTQSPASLSASVGETVTITCRASGNIHNYLAWYQQKQGKSPHLLVYNAKTLADGVPSRFSGSGSGTQYSLKINSLQPEDFGSYYCQHFWSTPWTFGGGTKLEIK
notes: murine mAb
Question: Does B9 bind [1]?
Answer: binds

B10: SC16.13 (antibody, V domains shown)
VH: QVTLKESGPGILQPSQTLSLTCSFSGFSLSTSGMGVGWIRQPSGKGLEWLAHIWWDDVKRYNPALKSRLTISKDTSSSQVFLKIASVDTADTATYYCARIVSFDNDVVSAMDYWGQGTSVTVSS
VL: QIVLTQSPALVSASPGEKVTMTCSASSSVSYMYWYQQKPRSSPKPWIYLTSNLASGVPARFSGSGSGTSYSLTISSMEAEDAATYYCQQWRSNPFTFGSGTKLEIK
notes: murine mAb
Question: Does B10 bind [1]?
Answer: binds

B11: SC16.143 (antibody, V domains shown)
VH: QVQLQQSGPELVKPGASVRISCKASGYTFTSYYIHWVKQRPGQGLEWIGWIYPGNGNTKYNEKFKGKATLTADKSSSTAYMQISSLTSEDSAVYFCARERWLLLWFAYWGQGTLVTVSA
VL: DVLMTQTPLSLPVSLGDQASISCRSSQSIVHSNGNTYLEWYLQKPGQSPKLLIYKVSNRFSGVPDRFSGSGSGTDFTLKISRVEAEDLGVYYCFQGSHVPLTFGAGTKLELK
notes: murine mAb
Question: Does B11 bind [1]?
Answer: binds

B12: hSC16.13 (antibody, V domains shown)
VH: QITLKESGPTLVKPTQTLTLTCTFSGFSLSTSGMGVGWIRQPPGKALEWLAHIWWDDVKRYSPSLKSRLTITKDTSKNQVVLTMTNMDPVDTATYYCARIVSFDNDVVSAMDYWGQGTLVTVSS
VL: DIQMTQSPSSLSASVGDRVTITCSASSSVSYMYWYQQKPGKAPKLLIYLTSNLASGVPSRFSGSGSGTDFTLTISSLQPEDFATYYCQQWRSNPFTFGQGTKLEIKR
notes: humanized (CDR grafted)
Question: Does B12 bind [2]?
Answer: binds

B13: SC16.149 (antibody, V domains shown)
VH: QVQLKESGPGLVAPSQSLSITCAVSGFSLTSFGVHWVRQPPGKGLEWLGVIWAGGSTNYYSALMSRLSISIDNSKSQVFLKMNSLQTDDTAMYYCARDWEGWFAYWGQGTLVTVSA
VL: DIQMNQSPSSLSASLGDTITITCHASQNINVWLSWYQQKPGNIPKLLIYKASHLHTGVPSRLSGSGSGTGFTLTISSLQPEDIATYYCQQGQSYPFTFGSGTTLEIK
notes: murine mAb
Question: Does B13 bind [1]?
Answer: binds

B14: SC16.148 (antibody, V domains shown)
VH: QIQLVQSGPELKKPGETVKISCKASGYTLTNYGMNWVKQAPGKGLKWMGWINTYTGEPTYADDFKGRFAFSLETSARIVYLQINNLKNEDTATYFCAKYEAHEGFVYWGQGTLVTVSA
VL: QIVLTQSPAIMSASPGEKVTMTCSASSSVSYMYWYQQKPGSSPRLLIYDTSNLASGVPVRFSGSGSGTSYSLTISRMEAEDTATYYCQEWSNNPLTFGDGTKLELK
notes: murine mAb
Question: Does B14 bind [1]?
Answer: binds

B15: SC16.132 (antibody, V domains shown)
VH: QVQLKESGPGLVAPSQSLSITCTVSGFSLTDYGVSWIRQPPGKGLEWLGVVWGGGSTYYNSALKSRLSITKDNSKSQVFLKMNSLQTDDTAMYYCAKQRGQYGAYWGQGTLVTVSA
VL: DIQMTQSPASQSASLGESVTITCLASQTIGTWLAWYQQKPGKSPQLLIYAATSLADGVPSRFSGSGSGTKFSFKISSLQAEDFVSYYCQQLYSTPWTFGGGTKLEIK
notes: murine mAb
Question: Does B15 bind [1]?
Answer: binds

B16: SC16.138 (antibody, V domains shown)
VH: QVQLKESGPGLVAPSQSLSITCTVSGFSLTDYGVSWIRQPPGKGLEWLGVVWGGGSTYYNSALKSRLSISKDNSKSQVFLKMNSLQTDDTAMYYCAKQRGQYGAYWGQGTLVTVSA
VL: DIQMTQSPASQSASLGESVTITCLASQTIGTWLAWYQQKPGKSPQLLIYSATSLADGVPSRFSGSGSGTKFSFKISSLQAEDFVSYYCQQLYSTPWTFGGGTKLEIK
notes: murine mAb
Question: Does B16 bind [1]?
Answer: binds

B17: SC16.133 (antibody, V domains shown)
VH: QVQLKESGPGLVAPSQSLSITCTVSGFSLTNYAVHWVRQSPGKGLEWLGVIWSDGSTDYNAAFISRLSISKDNSKSQVFFKMNSLQADDTAMYYCARKKGGWFPWFAYWGQGTLVTVSA
VL: SIVMTQTPKFLLVSAGDRVTITCKASQSVSNDVAWYQQKPGQSPKLLIYCASNRYTGVPDRFTGSGYGTDFTFTISTVQAEDLAVYFCQQDYSSPLTFGAGTKLELK
notes: murine mAb
Question: Does B17 bind [1]?
Answer: binds

B18: SC16.144 (antibody, V domains shown)
VH: QIQLVQSGPELKKPGETVKISCKASGYTFTNYGMNWVKQAPGKGLKWVGWINTYTGEPTYADDFKGRFAFSLETSASTAYLQIDNLKNEDTATYFCARVGDYVGFDYWGQGTTLTVSS
VL: SIVMTQTPKFLLVSAGDRVTITCKASQSVSNDVGWYQQKPGQSPKLLIYYASNRYNGVPDRFTGSGYGTDFTFTISTVQAEDLAVYFCQQDYSSPWTFGGGTKLEIK
notes: murine mAb
Question: Does B18 bind [1]?
Answer: binds

B19: hSC16.34 (antibody, V domains shown)
VH: QVQLVQSGAEVKKPGASVKVSCKASGYTFTNYGMNWVRQAPGQRLEWMGWINTYTGDPTYADDFKGRVTITRDTSASTAYMELSSLRSEDTAVYYCARIGGNSPSDYWGQGTTVTVSS
VL: DIQMTQSPSSLSASVGDRVTITCKASQSVSNDVAWYQQKPGKVPKLLIYYASNRYSGVPSRFSGSGSGTDFTLTISSLQPEDVATYFCQQDYSSPWTFGGGTKVEIK
notes: humanized (CDR grafted)
Question: Does B19 bind [2]?
Answer: binds

B20: hSC16.56 (antibody, V domains shown)
VH: QVQLVQSGAEVKKPGASVKVSCKASGYTFTNYGMNWVRQAPGQGLEWMGWINTYTGEPTYADDFKGRVTMTTDTSTSTAYMELRSLRSDDTAVYYCARIGDSSPSDYWGQGTLVTVSS
VL: EIVMTQSPATLSVSPGERATLSCKASQSVSNDVVWYQQKPGQAPRLLIYYASNRYTGIPARFSGSGSGTEFTLTISSLQSEDFAVYYCQQDYTSPWTFGQGTKLEIKR
notes: humanized (CDR grafted)
Question: Does B20 bind [2]?
Answer: binds
